The source of these data is article PMC6751238, “The first fungal laccase with an alkaline pH optimum obtained by directed evolution and its application in indigo dye decolorization” (AMB Express, 2019).

Substrate in data set [1]: COc1ccccc1O
The experiment in a line: purified protein.

Substrate in data set [2]: COc1cccc(OC)c1O
The experiment in a line: purified protein. It counts as biochemical, Coprinopsis cinerea.

The mark [3] stands for this setting: pH 6.5, 70 °C as printed in table (text says 60 °C), pH 6.5.
The mark [4] stands for this setting: PIE5, pH 8.5, 60 °C, pH 8.5, 60.0 °C.

B1: rLcc9 (Coprinopsis cinerea okayama7#130; E116K/I393T) (protein)
chain: QILGPTSTMTVSNIDASPDGFNRPVVAVNGQHPGPLVRANKGDNFRINVVNDLNDPTMLRQTSVHWHGVFQHGTAWADGPDGVTQCPIAQNGESFKYRFNAGNEAGTFWYHSHFGTQYCDGLRGPLVIYDPNDPHRNLYDVDNADTVITLVDWYHLQAPSIEGPALSDATLINGKGRRPGGPETDIAIVNVQRNRRYRFRLVSMSCDPNYKFSIDGHKLTVIEADGQLTEPLMVDEIQIFAGQRYSFVLSANRPVGNYWIRAIPNVGSNNLPNFSSGGINSAILRYAGAPNANPTSTPVTNPVALHESNLHALLNPGAPGGSGPADENIVLQMGLGPAGFEINGVTWANPDSPVMVQIMNGVPPADIVPSGATHTLPRNRVVEVSIPGFELAGPHPFHLHGHAFSVVRSAGSSTYNYENPVRRDVVDVGGASDNVTIRFTTDNPGPWFFHCHIEFHLVLGLAMVFMEAPSDIPSTSPPPPSWSELCPKFESLPASATSIQIVPTP
Regarding B1, in “purified protein [1]” (pH 6.5, 60 °C, pH 6.5, 60.0 °C), the Km is 110 µM, the kcat is 46 s⁻¹ and the kcat/Km is 390000 M⁻¹ s⁻¹.

B2: rLcc9 (Coprinopsis cinerea okayama7#130; E116K) (protein)
chain: QILGPTSTMTVSNIDASPDGFNRPVVAVNGQHPGPLVRANKGDNFRINVVNDLNDPTMLRQTSVHWHGVFQHGTAWADGPDGVTQCPIAQNGESFKYRFNAGNEAGTFWYHSHFGTQYCDGLRGPLVIYDPNDPHRNLYDVDNADTVITLVDWYHLQAPSIEGPALSDATLINGKGRRPGGPETDIAIVNVQRNRRYRFRLVSMSCDPNYKFSIDGHKLTVIEADGQLTEPLMVDEIQIFAGQRYSFVLSANRPVGNYWIRAIPNVGSNNLPNFSSGGINSAILRYAGAPNANPTSTPVTNPVALHESNLHALLNPGAPGGSGPADENIVLQMGLGPAGFEINGVTWANPDSPVMVQIMNGVPPADIVPSGAIHTLPRNRVVEVSIPGFELAGPHPFHLHGHAFSVVRSAGSSTYNYENPVRRDVVDVGGASDNVTIRFTTDNPGPWFFHCHIEFHLVLGLAMVFMEAPSDIPSTSPPPPSWSELCPKFESLPASATSIQIVPTP
Consider B2, for which, in the data set “purified protein [1]” (pH 6.5, 60 °C, pH 6.5, 60.0 °C), the Km amounted to 320 µM, the catalytic constant (kcat) amounted to 85.8 s⁻¹ and the kcat/Km came out at 250000 M⁻¹ s⁻¹.

B3: rLcc9 (Coprinopsis cinerea okayama7#130; I393T) (protein)
chain: QILGPTSTMTVSNIDASPDGFNRPVVAVNGQHPGPLVRANKGDNFRINVVNDLNDPTMLRQTSVHWHGVFQHGTAWADGPDGVTQCPIAQNGESFEYRFNAGNEAGTFWYHSHFGTQYCDGLRGPLVIYDPNDPHRNLYDVDNADTVITLVDWYHLQAPSIEGPALSDATLINGKGRRPGGPETDIAIVNVQRNRRYRFRLVSMSCDPNYKFSIDGHKLTVIEADGQLTEPLMVDEIQIFAGQRYSFVLSANRPVGNYWIRAIPNVGSNNLPNFSSGGINSAILRYAGAPNANPTSTPVTNPVALHESNLHALLNPGAPGGSGPADENIVLQMGLGPAGFEINGVTWANPDSPVMVQIMNGVPPADIVPSGATHTLPRNRVVEVSIPGFELAGPHPFHLHGHAFSVVRSAGSSTYNYENPVRRDVVDVGGASDNVTIRFTTDNPGPWFFHCHIEFHLVLGLAMVFMEAPSDIPSTSPPPPSWSELCPKFESLPASATSIQIVPTP
notes: lcc9 cDNA in pPIC9K (EcoRI/NotI), secreted from Pichia pastoris GS115, purified (DEAE-Sepharose); PIE5 = E116K/N229D/I393T
Turning to B3, in the data set “purified protein [1]” (pH 7.0, 60 °C, pH 7.0, 60.0 °C), the Km stood at 140 µM, the kcat worked out at 83.9 s⁻¹ and the kcat/Km was found to be 570000 M⁻¹ s⁻¹. In addition, in the data set “purified protein [2]” (pH 7.0, 60 °C), the Michaelis constant (Km) was determined as 1200 µM, the kcat was 49.2 s⁻¹ and the kcat/Km is 38000 M⁻¹ s⁻¹.

B4: rLcc9 (Coprinopsis cinerea okayama7#130; I393T/N229D) (protein)
chain: QILGPTSTMTVSNIDASPDGFNRPVVAVNGQHPGPLVRANKGDNFRINVVNDLNDPTMLRQTSVHWHGVFQHGTAWADGPDGVTQCPIAQNGESFEYRFNAGNEAGTFWYHSHFGTQYCDGLRGPLVIYDPNDPHRNLYDVDNADTVITLVDWYHLQAPSIEGPALSDATLINGKGRRPGGPETDIAIVNVQRNRRYRFRLVSMSCDPDYKFSIDGHKLTVIEADGQLTEPLMVDEIQIFAGQRYSFVLSANRPVGNYWIRAIPNVGSNNLPNFSSGGINSAILRYAGAPNANPTSTPVTNPVALHESNLHALLNPGAPGGSGPADENIVLQMGLGPAGFEINGVTWANPDSPVMVQIMNGVPPADIVPSGATHTLPRNRVVEVSIPGFELAGPHPFHLHGHAFSVVRSAGSSTYNYENPVRRDVVDVGGASDNVTIRFTTDNPGPWFFHCHIEFHLVLGLAMVFMEAPSDIPSTSPPPPSWSELCPKFESLPASATSIQIVPTP
As for B4, in the data set “purified protein [1]” (pH 8.0, 60 °C, pH 8.0, 60.0 °C), the Km came to 340 µM, the catalytic constant (kcat) was 82.5 s⁻¹ and the kcat/Km worked out at 230000 M⁻¹ s⁻¹.

B5: rLcc9 (Coprinopsis cinerea okayama7#130; E116K/N229D) (protein)
chain: QILGPTSTMTVSNIDASPDGFNRPVVAVNGQHPGPLVRANKGDNFRINVVNDLNDPTMLRQTSVHWHGVFQHGTAWADGPDGVTQCPIAQNGESFKYRFNAGNEAGTFWYHSHFGTQYCDGLRGPLVIYDPNDPHRNLYDVDNADTVITLVDWYHLQAPSIEGPALSDATLINGKGRRPGGPETDIAIVNVQRNRRYRFRLVSMSCDPDYKFSIDGHKLTVIEADGQLTEPLMVDEIQIFAGQRYSFVLSANRPVGNYWIRAIPNVGSNNLPNFSSGGINSAILRYAGAPNANPTSTPVTNPVALHESNLHALLNPGAPGGSGPADENIVLQMGLGPAGFEINGVTWANPDSPVMVQIMNGVPPADIVPSGAIHTLPRNRVVEVSIPGFELAGPHPFHLHGHAFSVVRSAGSSTYNYENPVRRDVVDVGGASDNVTIRFTTDNPGPWFFHCHIEFHLVLGLAMVFMEAPSDIPSTSPPPPSWSELCPKFESLPASATSIQIVPTP
In the case of B5, in the data set “purified protein [1]” (pH 8.0, 60 °C, pH 8.0, 60.0 °C), the Km worked out at 340 µM, the kcat is 75.4 s⁻¹ and the kcat/Km worked out at 210000 M⁻¹ s⁻¹.

B6: rLcc9 (Coprinopsis cinerea okayama7#130; N229D) (protein)
chain: QILGPTSTMTVSNIDASPDGFNRPVVAVNGQHPGPLVRANKGDNFRINVVNDLNDPTMLRQTSVHWHGVFQHGTAWADGPDGVTQCPIAQNGESFEYRFNAGNEAGTFWYHSHFGTQYCDGLRGPLVIYDPNDPHRNLYDVDNADTVITLVDWYHLQAPSIEGPALSDATLINGKGRRPGGPETDIAIVNVQRNRRYRFRLVSMSCDPDYKFSIDGHKLTVIEADGQLTEPLMVDEIQIFAGQRYSFVLSANRPVGNYWIRAIPNVGSNNLPNFSSGGINSAILRYAGAPNANPTSTPVTNPVALHESNLHALLNPGAPGGSGPADENIVLQMGLGPAGFEINGVTWANPDSPVMVQIMNGVPPADIVPSGAIHTLPRNRVVEVSIPGFELAGPHPFHLHGHAFSVVRSAGSSTYNYENPVRRDVVDVGGASDNVTIRFTTDNPGPWFFHCHIEFHLVLGLAMVFMEAPSDIPSTSPPPPSWSELCPKFESLPASATSIQIVPTP
notes: as for B3
As for B6, in “purified protein [1]” (pH 8.0, 60 °C, pH 8.0, 60.0 °C), the Km amounted to 370 µM, the kcat amounted to 87.3 s⁻¹ and the kcat/Km was determined as 230000 M⁻¹ s⁻¹. In “purified protein [2]” (pH 8.0, 60 °C), the Km came out at 2600 µM, the kcat worked out at 66.2 s⁻¹ and the kcat/Km is 25000 M⁻¹ s⁻¹.

B7: rLcc9 (Coprinopsis cinerea okayama7#130) (protein)
chain: QILGPTSTMTVSNIDASPDGFNRPVVAVNGQHPGPLVRANKGDNFRINVVNDLNDPTMLRQTSVHWHGVFQHGTAWADGPDGVTQCPIAQNGESFEYRFNAGNEAGTFWYHSHFGTQYCDGLRGPLVIYDPNDPHRNLYDVDNADTVITLVDWYHLQAPSIEGPALSDATLINGKGRRPGGPETDIAIVNVQRNRRYRFRLVSMSCDPNYKFSIDGHKLTVIEADGQLTEPLMVDEIQIFAGQRYSFVLSANRPVGNYWIRAIPNVGSNNLPNFSSGGINSAILRYAGAPNANPTSTPVTNPVALHESNLHALLNPGAPGGSGPADENIVLQMGLGPAGFEINGVTWANPDSPVMVQIMNGVPPADIVPSGAIHTLPRNRVVEVSIPGFELAGPHPFHLHGHAFSVVRSAGSSTYNYENPVRRDVVDVGGASDNVTIRFTTDNPGPWFFHCHIEFHLVLGLAMVFMEAPSDIPSTSPPPPSWSELCPKFESLPASATSIQIVPTP
notes: as for B3
As to B7, in “purified protein [1]” (setting [3]), the Km came to 90 µM, the kcat worked out at 22.8 s⁻¹ and the kcat/Km amounted to 250000 M⁻¹ s⁻¹. Further, in “purified protein [2]” (pH 6.5, 60 °C), the Km is 2300 µM, the kcat stood at 69.4 s⁻¹ and the kcat/Km came out at 30000 M⁻¹ s⁻¹.

B8: rLcc9 (Coprinopsis cinerea okayama7#130; E116K/I393T/N229D) (protein)
chain: QILGPTSTMTVSNIDASPDGFNRPVVAVNGQHPGPLVRANKGDNFRINVVNDLNDPTMLRQTSVHWHGVFQHGTAWADGPDGVTQCPIAQNGESFKYRFNAGNEAGTFWYHSHFGTQYCDGLRGPLVIYDPNDPHRNLYDVDNADTVITLVDWYHLQAPSIEGPALSDATLINGKGRRPGGPETDIAIVNVQRNRRYRFRLVSMSCDPDYKFSIDGHKLTVIEADGQLTEPLMVDEIQIFAGQRYSFVLSANRPVGNYWIRAIPNVGSNNLPNFSSGGINSAILRYAGAPNANPTSTPVTNPVALHESNLHALLNPGAPGGSGPADENIVLQMGLGPAGFEINGVTWANPDSPVMVQIMNGVPPADIVPSGATHTLPRNRVVEVSIPGFELAGPHPFHLHGHAFSVVRSAGSSTYNYENPVRRDVVDVGGASDNVTIRFTTDNPGPWFFHCHIEFHLVLGLAMVFMEAPSDIPSTSPPPPSWSELCPKFESLPASATSIQIVPTP
notes: as for B3
Regarding B8, in the data set “purified protein [1]” (setting [4]), the Km was determined as 330 µM, the kcat is 62.9 s⁻¹ and the kcat/Km is 180000 M⁻¹ s⁻¹. In the data set “purified protein [2]” (PIE5, pH 8.0, 60 °C), the Km was 5700 µM, the kcat was 43.5 s⁻¹ and the kcat/Km is 7500 M⁻¹ s⁻¹.
